Measured values reported in patent US20230235004A1 (published 2023).

T1: human MAdCAM expressed on cells (human, UniProt Q13477 19-382)
T1 construct: whole, on cells
T1 sequence (looked up): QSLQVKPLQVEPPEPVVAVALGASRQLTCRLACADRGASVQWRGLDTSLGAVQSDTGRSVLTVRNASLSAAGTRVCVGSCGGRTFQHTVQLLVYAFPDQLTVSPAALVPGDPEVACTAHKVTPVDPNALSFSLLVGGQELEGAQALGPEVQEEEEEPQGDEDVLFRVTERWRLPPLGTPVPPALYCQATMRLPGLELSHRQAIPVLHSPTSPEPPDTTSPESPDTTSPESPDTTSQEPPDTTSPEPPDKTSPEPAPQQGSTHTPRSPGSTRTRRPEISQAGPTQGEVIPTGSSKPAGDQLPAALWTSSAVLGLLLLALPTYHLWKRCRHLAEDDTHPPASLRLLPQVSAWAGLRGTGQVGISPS

T2: mouse MAdCAM expressed on cells (mouse, UniProt Q61826 22-405)
T2 construct: whole, on cells
T2 sequence (looked up): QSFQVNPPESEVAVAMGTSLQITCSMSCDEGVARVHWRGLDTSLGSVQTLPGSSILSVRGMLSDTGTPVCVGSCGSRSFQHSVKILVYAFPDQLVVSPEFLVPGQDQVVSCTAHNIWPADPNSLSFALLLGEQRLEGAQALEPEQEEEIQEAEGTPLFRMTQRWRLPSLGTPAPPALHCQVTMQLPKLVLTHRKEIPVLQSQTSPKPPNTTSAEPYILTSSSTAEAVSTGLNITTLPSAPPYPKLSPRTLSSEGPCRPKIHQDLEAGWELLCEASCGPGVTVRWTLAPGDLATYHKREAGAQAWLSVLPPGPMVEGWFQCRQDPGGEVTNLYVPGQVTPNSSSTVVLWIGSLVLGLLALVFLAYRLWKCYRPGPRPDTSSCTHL


Tests used:
[1] = molecular target: T1, human MAdCAM expressed on cells; experiment: cell binding
[2] = molecular target: T2, mouse MAdCAM expressed on cells; experiment: cell binding

Row | Binder | binding result [1] | binding result [2]
1 | MAdCAM antibody Table 1 clone 35 (scFv) scFv: EVQLLESGGGLVQPGGSLRLSCAASGFSFSSYTMNWVRQAPGKGLEWVSFITSSSRTIYYADSVKGRFTISRDNSKNTLYLQMNSLRAEDTAVYYCARDRRGDYGDSWYFDLWGRGTLVTVSSGGGGSGGGGSGGGGSGGGGSEIVMTQSPATLSVSPGERATLSCRASQSVRNYLAWYQQKPGQAPRLLIYGASTRATGIPARFSGSGSGTEFTLTISSLQSEDFAVYYCQQYGSSPLTFGGGTKVEIK | binds | no binding
2 | MAdCAM antibody Table 1 clone 44 (scFv) scFv: EVQLVESGGGLVKPGGSLRLSCAASGFTFSSYWMSWVRQAPGKGLEWVSAIGTGGGTYYAAPVKGRFTISRDDSKNTLYLQMNSLKTEDTAVYYCAREWLVPYYGMDVWGQGTTVTVSSGGGGSGGGGSGGGGSGGGGSDIQMTQSPSSLSASVGDRVTITCRASQSISRWLAWYQQKPGKAPKLLIYGASNLQSGVPSRFSGSGSGTDFTLTISSLQPEDFATYYCQQSYSTPWTFGQGTKVEIK | binds | no binding
3 | MAdCAM antibody Table 1 clone 32 (scFv) scFv: QVQLVQSGAEVKKPGASVKVSCKASGYTLTDYYMHWVRQAPGQGLEWMGIINPSGGSTSYAQKFQGRVTMTRDTSTSTVYMELSSLRSEDTAVYYCAREEYSSSSGYFDYWGQGTLVTVSSGGGGSGGGGSGGGGSGGGGSDIQMTQSPSSLSASVGDRVTITCRASQGISSWLAWYQQKPGKAPKLLIYAASSLQSGVPSRFSGSGSGTDFTLTISSLQPEDFATYYCQQSYSTPLTFGQGTKVEIK | binds | no binding
4 | MAdCAM antibody Table 1 clone 29 (scFv) scFv: QVQLVQSGAEVKKPGASVKVSCKASGYTFTSYYMHWVRQAPGQGLEWMAWMNPNSGNTGYAQKFQGRVTMTRDTSTSTVYMELSSLRSEDTAVYYCARDYDFWSGSLGYWGQGTLVTVSSGGGGSGGGGSGGGGSGGGGSDIQMTQSPSSLSASVGDRVTITCRASQGISNYLAWYQQKPGKAPKLLIYAASSLQSGVPSRFSGSGSGTDFTLTISSLQPEDFATYYCQQSYSTPWTFGQGTKVEIK | binds | no binding
5 | MAdCAM antibody Table 1 clone 38 (scFv) scFv: EVQLLESGGGLVQPGGSLRLSCAASGFTFGSYSMSWVRQAPGKGLEWVSAIGTGGGTYYADSVKGRFTISRDNSKNTLYLQMNSLRAEDTAVYYCAKGTPYYYYYGMDVWGQGTMVTVSSGGGGSGGGGSGGGGSGGGGSDIQMTQSPSSLSASVGDRVTITCRASQPLSNWLAWYQQKPGKAPKLLIYAASSLQSGVPSRFSGSGSGTDFTLTISSLQPEDFATYYCQQAISFPLTFGGGTKVEIK | binds | no binding
6 | MAdCAM antibody Table 1 clone 43 (scFv) scFv: EVQLLESGGGLVQPGGSLRLSCAASGFTFDDFAMHWVRQAPGKGLEWVSGISGNGDSRYYADSVKGRFTISRDNSKNTLYLQMNSLRAEDTAVYYCARDASYGGNYGMDVWGQGTTVTVSSGGGGSGGGGSGGGGSGGGGSDIQMTQSPSSLSASVGDRVTITCQASQDIRNYLNWYQQKPGKAPKLLIYKASTLESGVPSRFSGSGSGTDFTLTISSLQPEDFATYYCQQANSFPLTFGPGTKVDIK | binds | no binding
7 | MAdCAM antibody Table 1 clone 31 (scFv) scFv: QVQLVQSGAEVKKPGASVKVSCKASGYTFTSYYMHWVRQAPGQGLEWMGIINPSGGSTSYAQKFQGRVTMTRDTSTSTVYMELSSLRSEDTAVYYCARDTGYSYGRYYYYGMDVWGQGTLVTVSSGGGGSGGGGSGGGGSGGGGSDIQMTQSPSSLSASVGDRVTITCRASQSIGRWLAWYQQKPGKAPKLLIYDASNLQSGVPSRFSGSGSGTDFTLTISSLQPEDFATYYCQQSYSIPITFGQGTKVEIK | binds | no binding
8 | MAdCAM antibody Table 1 clone 45 (scFv) scFv: EVQLLESGGGLVQPGGSLRLSCAASGFSVSSNYMSWVRQAPGKGLEWVAGISYDGSSKPYADSVKGRFTISRDNSKNTLYLQMNSLRAEDTAVYYCARSRGIAARPLQHWGQGTLVTVSSGGGGSGGGGSGGGGSGGGGSDIVMTQSPDSLAVSLGERATINCKSSQSVLYSSNNKNYLAWYQQKPGQPPKLLIYWASTRQSGVPDRFSGSGSGTDFTLTISSLQAEDVAVYYCHQYYGHPPTFGGGTKVEIK | binds | no binding

Next, values leading:

Row | binding result [1] | binding result [2] | Binder
9 | binds | no binding | MAdCAM antibody Table 1 clone 39 (scFv) scFv: QVQLVQSGAEVKKPGASVKVSCKASGYTFTSYYMHWVRQAPGQGLEWMGWMNPNSGNTGYAQKFQGRVTMTRDTSTSTVYMELSSLRSEDTAVYYCARDLGYYDSSGYFGAFDIWGQGTTVTVSSGGGGSGGGGSGGGGSGGGGSDIQMTQSPSSLSASVGDRVTITCQSSEDISSSLNWYQQKPGKAPKLLIYAASSLQIGVPSRFSGSGSGTDFTLTISSLQPEDFATYYCQQTYSTPYTFGQGTKVEIK
10 | binds | no binding | MAdCAM antibody Table 1 clone 56 (scFv) scFv: EVQLLESGGGLVQPGGSLRLSCAASGFTFDDYAMHWVRQAPGKGLEWVSAISGGGEDTYYADSVKGRFTISRDNSKNTLYLQMNSLRAEDTAVYYCARDASYGGNYGMDVWGQGTTVTVSSGGGGSGGGGSGGGGSGGGGSDIQMTQSPSSLSASVGDRVTITCQASQDIRNYLNWYQQKPGKAPKLLIYKASSLESGVPSRFSGSGSGTDFTLTISSLQPEDFATYYCQQANSYPVTFGGGTKVEIK
11 | binds | no binding | MAdCAM antibody Table 1 clone 36 (scFv) scFv: QVQLVQSGAEVKKPGASVKVSCKASGYTFTGHYMHWVRQAPGQGLEWMGIINPSGGSTSYAQKFQGRVTMTRDTSTSTVYMELSSLRSEDTAVYYCARDTGYSYGRYYYYGMDVWGQGTTVTVSSGGGGSGGGGSGGGGSGGGGSDIQMTQSPSSLSASVGDRVTITCRASQSIGRWLAWYQQKPGKAPKLLIYDASNLQSGVPSRFSGSGSGTDFTLTISSLQPEDFATYYCQQSYSIPITFGGGTKVEIK
12 | binds | no binding | MAdCAM antibody Table 1 clone 37 (scFv) scFv: QVQLVQSGAEVKKPGASVKVSCKASGYTFSKHFVHWVRQAPGQGLEWMGWMNPNSGNSGYAQKFQGRVTMTRDTSTSTVYMELSSLRSEDTAVYYCARGEGGYYYYGMDVWGQGTLVTVSSGGGGSGGGGSGGGGSGGGGSDIQMTQSPSSLSASVGDRVTITCRASQSISSWLAWYQQKPGKAPKLLIYAASTLQSGVPSRFSGSGSGTDFTLTISSLQPEDFATYYCQQSYSTPWTFGQGTKVEIK
13 | binds | no binding | MAdCAM antibody Table 1 clone 33 (scFv) scFv: QVQLVQSGAEVKKPGASVKVSCKASGYTFTSYGISWVRQAPGQGLEWMGWMHPKSGDTGLTQKFQGRVTMTRDTSTSTVYMELSSLRSEDTAVYYCARDTPYYYYGMDVWGQGTTVTVSSGGGGSGGGGSGGGGSGGGGSDIQMTQSPSSLSASVGDRVTITCRASQSISSWLAWYQQKPGKAPKLLIYAASSLQSGVPSRFSGSGSGTDFTLTISSLQPEDFATYYCQQSYSVPITFGQGTKVEIK
14 | binds | no binding | MAdCAM antibody Table 1 clone 40 (scFv) scFv: QVQLVQSGAEVKKPGASVKVSCKASGYTFTSYGISWVRQAPGQGLEWMGIINPRGGSTIFAQKFQGRVTMTRDTSTSTVYMELSSLRSEDTAVYYCARGTRSSGWYGWFDPWGQGTLVTVSSGGGGSGGGGSGGGGSGGGGSDIQMTQSPSSLSASVGDRVTITCRASQGIGNWLAWYQQKPGKAPKLLIYAASNLETGVPSRFSGSGSGTDFTLTISSLQPEDFATYYCQQIHSYPLTFGGGTKVEIK
15 | binds | no binding | MAdCAM antibody Table 1 clone 42 (scFv) scFv: QVQLVQSGAEVKKPGSSVKVSCKASGGTLSRYGVSWVRQAPGQGLEWMGGIIPIFGTTNYAQKFQGRVTITADESTSTAYMELSSLRSEDTAVYYCARDRVYYDSSGYPTWYFDLWGRGTLVTVSSGGGGSGGGGSGGGGSGGGGSEIVMTQSPATLSVSPGERATLSCRASQSVSSSYLAWYQQKPGQAPRLLIYGASTRATGIPARFSGSGSGTEFTLTISSLQSEDFAVYYCQQYGSSPITFGQGTKVEIK
16 | binds | no binding | MAdCAM antibody Table 1 clone 46 (scFv) scFv: EVQLLESGGGLVQPGGSLRLSCAASGFSVSSNYMSWVRQAPGKGLEWVAGISYDGSSKPYADSVKGRFTISRDNSKNTLYLQMNSLRAEDTAVYYCARSRGIAARPLQHWGQGTLVTVSSGGGGSGGGGSGGGGSGGGGSDIVMTQSPDSLAVSLGERATINCKSSQSVLYSSNNKNYLAWYQQKPGQPPKLLIYQASTRQSGVPDRFSGSGSGTDFTLTISSLQAEDVAVYYCHQYYGHPPTFGGGTKVEIK
